Measured values published in the supplement of paper PMC7877785.
± gives the uncertainty stated by the source.

Test: self-splicing fitness, log relative to wild type (ln ratio); higher = more splicing; Tetrahymena group I intron in knt gene, E. coli kanamycin selection, DiMSum; sequences stand for … in CUCUCU…GGAGGGAAAAGUUAUCAGGCAUGCACCUGGUAGCUAGUCUUUAAACCAAUAGAUUGCAUCGGUUUAAAAGGCAAGACCGUCAAAUUGCGGGAAAGGGGUCAACAGCCGUUCAGUACCAAGUCUCAGGGGAAACUUUGAGAUGGCCUUGCAAAGGGUAUGGUAAUAAGCUGACGGACAUGGUCCUAACCACGCAGCCAAGUCCUAAGUCAACAGAUCUUCUGUUGAUAUGGAUGCAGUUCACAGACUAAAUGUCGGUCGGGGAAGAUGUAUUCUUCUCAUAAGAUAUAGUCGGACCUCUCCUUAAUGGGAGCUAGCGGAUGAAGUGAUGCAACACUGGAGCCGCUGGGAACUAAUUUGUAUGCGAAAGUAUAUUGAUUAGUUUUGGAGUACUCGUGGUCG
How it was run: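 Library with all eight P1ex-region intron nucleotides randomised, intron inside the knt kanamycin-resistance gene on pET-22b(+), in E. coli BL21(DE3). Cells grew overnight at 37°C or 30°C on LB agar with or without 25 μg/mL kanamycin (plus 100 μg/mL carbenicillin, 50 μM IPTG, 0.2% rhamnose), in six replicate transformations. Pooled colonies were amplicon-sequenced on Illumina HiSeq 2500. DiMSum fitness is the error-weighted combination of wild-type-normalised replicate fold changes, kanamycin versus none.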

UAGAAGCAAUAUUACGAUGU
self-splicing fitness (ln) (30 °C): -3.01 ± 0.18
self-splicing fitness (ln) (37 °C): -1.69 ± 0.19

GAAAAGCAAUAUUACGGUCA
self-splicing fitness (ln) (30 °C): -0.479 ± 0.067
self-splicing fitness (ln) (37 °C): 0.0562 ± 0.073

GCCGAGCAAUAUUACGGCGA
self-splicing fitness (ln) (30 °C): -0.848 ± 0.21
self-splicing fitness (ln) (37 °C): -1.42 ± 0.24

GACUAGCAAUAUUACGGAGA
self-splicing fitness (ln) (30 °C): -3.49 ± 0.23
self-splicing fitness (ln) (37 °C): -2.04 ± 0.19

AUUCAGCAAUAUUACGAUCA
self-splicing fitness (ln) (30 °C): -0.753 ± 0.088
self-splicing fitness (ln) (37 °C): -0.162 ± 0.11

CUGCAGCAAUAUUACGCGUG
self-splicing fitness (ln) (30 °C): -1.92 ± 0.12
self-splicing fitness (ln) (37 °C): -1.67 ± 0.16

UUGUAGCAAUAUUACGCAUU
self-splicing fitness (ln) (30 °C): -2.84 ± 0.43
self-splicing fitness (ln) (37 °C): -2.26 ± 0.32

ACGGAGCAAUAUUACGCUGU
self-splicing fitness (ln) (37 °C): -2.56 ± 0.25

UGACAGCAAUAUUACGUACU
self-splicing fitness (ln) (30 °C): -0.423 ± 0.064
self-splicing fitness (ln) (37 °C): 0.165 ± 0.085

UACGAGCAAUAUUACGCGAA
self-splicing fitness (ln) (30 °C): -2.89 ± 0.32
self-splicing fitness (ln) (37 °C): -2.72 ± 0.26

UCUAAGCAAUAUUACGAUCA
self-splicing fitness (ln) (30 °C): -0.876 ± 0.21
self-splicing fitness (ln) (37 °C): -0.379 ± 0.14

CCCAAGCAAUAUUACGACGG
self-splicing fitness (ln) (30 °C): -3.7 ± 0.21
self-splicing fitness (ln) (37 °C): -1.61 ± 0.16

CGCAAGCAAUAUUACGCUAU
self-splicing fitness (ln) (30 °C): -3.23 ± 0.17
self-splicing fitness (ln) (37 °C): -3.15 ± 0.22

UGCUAGCAAUAUUACGCGUC
self-splicing fitness (ln) (30 °C): -3.06 ± 0.27
self-splicing fitness (ln) (37 °C): -2.23 ± 0.27

UGUUAGCAAUAUUACGGAGU
self-splicing fitness (ln) (37 °C): -2.73 ± 0.27

GAUAAGCAAUAUUACGACAU
self-splicing fitness (ln) (30 °C): -0.4 ± 0.012
self-splicing fitness (ln) (37 °C): 0.0172 ± 0.032

CCUAAGCAAUAUUACGCCAU
self-splicing fitness (ln) (30 °C): -4.47 ± 0.46
self-splicing fitness (ln) (37 °C): -2.48 ± 0.34

ACCCAGCAAUAUUACGUUAA
self-splicing fitness (ln) (30 °C): -1.6 ± 0.078
self-splicing fitness (ln) (37 °C): -0.769 ± 0.071

CAAAAGCAAUAUUACGUAGA
self-splicing fitness (ln) (30 °C): -1.88 ± 0.078
self-splicing fitness (ln) (37 °C): -1.97 ± 0.12

UACUAGCAAUAUUACGCGAC
self-splicing fitness (ln) (30 °C): -2.29 ± 0.25
self-splicing fitness (ln) (37 °C): -2.29 ± 0.3

AGAAAGCAAUAUUACGGUGU
self-splicing fitness (ln) (30 °C): -2.76 ± 0.098
self-splicing fitness (ln) (37 °C): -1.28 ± 0.096

CGUAAGCAAUAUUACGCUUU
self-splicing fitness (ln) (30 °C): -3.21 ± 0.23
self-splicing fitness (ln) (37 °C): -2.31 ± 0.2

CCUCAGCAAUAUUACGAUGC
self-splicing fitness (ln) (30 °C): -4.19 ± 0.24
self-splicing fitness (ln) (37 °C): -2.15 ± 0.3

GCAGAGCAAUAUUACGGACG
self-splicing fitness (ln) (37 °C): -2.96 ± 0.29

ACUUAGCAAUAUUACGGAUC
self-splicing fitness (ln) (30 °C): -2.09 ± 0.11
self-splicing fitness (ln) (37 °C): -1.35 ± 0.16

AGAUAGCAAUAUUACGUCCC
self-splicing fitness (ln) (30 °C): -1.36 ± 0.2
self-splicing fitness (ln) (37 °C): 0.133 ± 0.32

CCGGAGCAAUAUUACGAGCA
self-splicing fitness (ln) (37 °C): -0.395 ± 0.25

CCCGAGCAAUAUUACGUAGC
self-splicing fitness (ln) (30 °C): -3.06 ± 0.24
self-splicing fitness (ln) (37 °C): -2.49 ± 0.33

AGUAAGCAAUAUUACGCCGC
self-splicing fitness (ln) (30 °C): -1.03 ± 0.25
self-splicing fitness (ln) (37 °C): -2.95 ± 0.48

AAGCAGCAAUAUUACGGGGC
self-splicing fitness (ln) (30 °C): -3.15 ± 0.23
self-splicing fitness (ln) (37 °C): -2.54 ± 0.24

ACUCAGCAAUAUUACGCAUA
self-splicing fitness (ln) (30 °C): -1.35 ± 0.082
self-splicing fitness (ln) (37 °C): -0.543 ± 0.094

UAGAAGCAAUAUUACGGACG
self-splicing fitness (ln) (30 °C): -0.286 ± 0.13
self-splicing fitness (ln) (37 °C): 0.291 ± 0.16

UGGCAGCAAUAUUACGCAGG
self-splicing fitness (ln) (30 °C): -2.79 ± 0.16
self-splicing fitness (ln) (37 °C): -1.23 ± 0.12

CCAAAGCAAUAUUACGAAAG
self-splicing fitness (ln) (30 °C): -1.14 ± 0.088
self-splicing fitness (ln) (37 °C): -0.678 ± 0.11

AACCAGCAAUAUUACGGAGG
self-splicing fitness (ln) (30 °C): -1.36 ± 0.076
self-splicing fitness (ln) (37 °C): -0.444 ± 0.12

UGCGAGCAAUAUUACGCGGU
self-splicing fitness (ln) (30 °C): -2.46 ± 0.17
self-splicing fitness (ln) (37 °C): -2.43 ± 0.19

AGGUAGCAAUAUUACGGCAG
self-splicing fitness (ln) (30 °C): -1.25 ± 0.015
self-splicing fitness (ln) (37 °C): -0.539 ± 0.033

GGUAAGCAAUAUUACGGAGU
self-splicing fitness (ln) (30 °C): -3.39 ± 0.22
self-splicing fitness (ln) (37 °C): -1.73 ± 0.18

UCACAGCAAUAUUACGGACC
self-splicing fitness (ln) (37 °C): -2.14 ± 0.29
